In patent US10081661 one finds activity data, which are given here for 2 sequences.

Holding throughout (assay): cell_activity
The test system of data set [1] is ZFN SBS#47169 (human albumin). The note with it: paired with 47171; HepG2, 100 ng mRNA each.
Data set [2] deals with ZFN SBS#47931 (human albumin). The settings on record: paired with 47863; K562.
Data set [3] has as its system ZFN SBS#40477 (human albumin). The note with it: paired with 47192; HepG2.
For data set [4], the system named is ZFN SBS#47898 (human albumin). The note with it: paired with 47863; K562.
The subject of data set [5] is ZFN SBS#47079 (human albumin). The settings on record: paired with 47863; K562.
For data set [6], the system named is ZFN SBS#47863 (human albumin). The settings on record: paired with 47898; K562.
Data set [7] relates to ZFN SBS#47864 (human albumin). The settings on record: paired with 47931; HepG2.
Data set [8] concerns ZFN SBS#47171 (human albumin). The settings on record: paired with 47079; K562, 75 ng mRNA.
The test system of data set [9] is ZFN SBS#47192 (human albumin). The settings on record: paired with 47079; K562.

For the sequence “CCTATCCATTGCACTATGCTTTATTTAA (double strand) [human/rhesus albumin site]”, the activity in [1] came to 22.2 % indels; in data set [2], 78.9 % indels; in data set [3] it was 23.7 % indels; in [4], 91.9 % indels; in data set [5], 86.8 % indels.
For the sequence “TTTGGGATAGTTATGAATTCAATCTTCA (double strand) [human albumin site]”, the activity in data set [6] was 91.9 % indels; in data set [7], 21.3 % indels; in [8], 79.4 % indels; in data set [9], 77.9 % indels.
